The term stoichiometry N denotes the number of molecules, sites or subunits per partner or assembly.

For test [1], the target named is SARS-CoV-2 Alpha variant spike ectodomain fused to resistin (SARS-CoV-2 | human) (UniProt P0DTC2). Description: SEC-MALS.
In test [2] the target is SARS-CoV-2 Delta spike ectodomain without trimerization domain (SARS-CoV-2) (UniProt P0DTC2).

In turn, “SARS-CoV-2 Alpha variant spike ectodomain fused to resistin (from UniProt P0DTC2 14-1213)” yielded a stoichiometry N in test [1] of 6.

In test [2], “SARS-CoV-2 Delta spike ectodomain without trimerization domain (from UniProt P0DTC2 14-1213) (domain or fragment)” displayed a percent trimeric of 30 to 50%.
